This assay concerns the target Rat secretory component (rat (endogenous in rat liver)) (UniProt P15083). The assay is described as follows: co-IP.

Percent bound to anti-rat SC immunoadsorbent data for 1 substance are collected here from paper PMC2114114.

Sequence of UniProt P15083 (P15083 19-611): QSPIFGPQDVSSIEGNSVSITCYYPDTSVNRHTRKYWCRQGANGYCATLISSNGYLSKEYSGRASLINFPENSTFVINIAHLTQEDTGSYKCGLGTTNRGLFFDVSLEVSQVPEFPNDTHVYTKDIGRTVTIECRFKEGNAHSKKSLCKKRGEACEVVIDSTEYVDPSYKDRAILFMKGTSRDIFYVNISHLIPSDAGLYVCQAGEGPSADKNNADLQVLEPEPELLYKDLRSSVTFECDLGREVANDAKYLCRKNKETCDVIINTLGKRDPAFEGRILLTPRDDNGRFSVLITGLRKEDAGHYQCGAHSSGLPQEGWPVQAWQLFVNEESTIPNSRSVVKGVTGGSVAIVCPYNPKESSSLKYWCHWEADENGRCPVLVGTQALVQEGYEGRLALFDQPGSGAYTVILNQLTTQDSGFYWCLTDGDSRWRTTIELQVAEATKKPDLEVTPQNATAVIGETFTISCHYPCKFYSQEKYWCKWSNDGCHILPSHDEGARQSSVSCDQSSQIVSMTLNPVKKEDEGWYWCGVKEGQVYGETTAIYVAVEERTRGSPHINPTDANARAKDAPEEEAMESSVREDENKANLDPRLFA

As to “Human monoclonal polymeric IgA (IgA1 myeloma protein) (from UniProt P01591 23-159) (antibody)”, the percent bound to anti-rat SC immunoadsorbent was 92.4%.
